Measured values taken from article PMC4188734 (Journal of molecular biology, 2014).
Where two headings read alike, the source gives them in different places.

T1: OS-9 CTE (Homo sapiens, UniProt Q13438)
T1 chain: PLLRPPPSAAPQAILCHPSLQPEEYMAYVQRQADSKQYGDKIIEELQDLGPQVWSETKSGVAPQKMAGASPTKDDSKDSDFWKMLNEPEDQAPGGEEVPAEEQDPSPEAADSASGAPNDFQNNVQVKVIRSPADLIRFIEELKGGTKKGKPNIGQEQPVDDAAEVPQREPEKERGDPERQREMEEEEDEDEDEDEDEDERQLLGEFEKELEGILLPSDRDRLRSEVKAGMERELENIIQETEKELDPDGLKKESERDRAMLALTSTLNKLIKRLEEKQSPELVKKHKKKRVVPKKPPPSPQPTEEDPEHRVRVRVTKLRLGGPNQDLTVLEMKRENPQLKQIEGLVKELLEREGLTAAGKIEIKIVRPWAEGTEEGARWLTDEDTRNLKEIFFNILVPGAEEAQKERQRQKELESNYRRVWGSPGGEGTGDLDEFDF

T2: OS-9 ΔMRH (Homo sapiens, UniProt Q13438)
T2 chain: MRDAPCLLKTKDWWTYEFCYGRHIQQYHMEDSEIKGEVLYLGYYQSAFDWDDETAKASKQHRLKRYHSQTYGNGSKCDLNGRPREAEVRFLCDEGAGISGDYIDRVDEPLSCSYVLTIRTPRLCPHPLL

B1: OS-9 ΔMRH (267–666) (domain or fragment, rat, UniProt Q5RKH6 267-666, looked up)
chain: QHEEKVTEEVQDTDHQVWSGSKAAGAPPKKEDVSPTKEDKESEFWKMLQEPEEQATGTEEAQAGEQDLNHEAAADPAPAPPTDFQNNVQVKLIRSPADLIRLIEELKGAEKGKPSVRQEQPGDDTTEAPQREAEAKGKGGEPRGLVEEEDGDEEEEDEDEDEQQLLGEFEKELEGMLLPSDRERLRSEVKAGMERELENIIQETEKELDPEGLRKESEREQAILALTSTLDKLIKRLQESQSPELVQKYKKRRVVPQKPPPSPHPTEEEPEHRVRVRVTKLRHGGPNQDLTVLEMNRENPQLKQIEGLVTEVLEREGLTAEGKIEIKIVRPGAEGKEEDTRWLTDEDTRNLKEIFFNILVQGAEEANKERQRQSELESNYRRVWGSPGGEDTGDLDEFDF
B2: Grp94-C (601–754) (domain or fragment, canine, UniProt P41148 601-754, looked up)
chain: SEKTKESREAIEKEFEPLLNWMKDKALKDKIEKAVVSQRLTESPCALVASQYGWSGNMERIMKAQAYQTGKDISTNYYASQKKTFEINPRHPLIKDMLRRVKEDEDDKTVSDLAVVLFETATLRSGYLLPDTKAYGDRIERMLRLSLNIDPDAK

Tests used:
Assay in all cases: ITC
OS-9 CTE = molecular target: T1, OS-9 CTE
OS-9 ΔMRH = molecular target: T2, OS-9 ΔMRH
OS-9 ΔMRH (267–666) = molecular target: B1
His-Grp94-MC (337–765) [1] = molecular target: T3, His-Grp94-MC (337–765) (canine, UniProt P41148 337-765)
Grp94-M (337–594) = Grp94-M (337–594) (canine, UniProt P41148 337-594)
Grp94-C (601–754) = molecular target: B2
His-Grp94-MC (337–765) [2] = molecular target: T3, His-Grp94-MC (337–765); remark: listed apart in the source

Binder	Kd (OS-9 CTE) [µM]	Kd (OS-9 ΔMRH) [µM]	Kd (OS-9 ΔMRH (267–666)) [µM]	dH (OS-9 ΔMRH (267–666)) [kcal/mol]	stoichiometry N (OS-9 ΔMRH (267–666))	also measured
Grp94 M domain (protein) NDIKPIWQRPSKEVEDDEYKAFYKSFSKESDDPMAYIHFTAEGEVTFKSILFVPTSAPRGLFDEYGSKKSDYIKLYVRRVFITDDFHDMMPKYLNFVKGVVDSDDLPLNVSRETLQQHKLLKVIRKKLVRKTLDMIKKIADEKYNDTFWKEFGTNIKLGVIEDHSNRTRLAKLLRFQSSHHPSDITSLDQYVERMKEKQDKIYFMAGSSRKEAESSPFVERLLKKGYEVIYLTEPVDEYCIQALPEFDGKRFQNVAKE	14	25	25.4 ± 2.6	-3.3 ± 0.1	2.8 ratio of Grp94 monomer to the OS-9 hexamer	
B1						Kd (His-Grp94-MC (337–765) [1]): 8.4 ± 2.3 µM
B2			24.6 ± 1.7	-14 ± 0.7	1 ratio of Grp94 dimer to the OS-9 hexamer	
OS-9 CTE (589–666) (domain or fragment, rat, UniProt Q5RKH6 589-666, looked up) KIEIKIVRPGAEGKEEDTRWLTDEDTRNLKEIFFNILVQGAEEANKERQRQSELESNYRRVWGSPGGEDTGDLDEFDF						Kd (Grp94-M (337–594)): 14.3 ± 2.1 µM; dH (Grp94-M (337–594)): -9.1 ± 1 kcal/mol; stoichiometry N (Grp94-M (337–594)): 3.4 ratio of Grp94 monomer to the OS-9 hexamer; Kd (Grp94-C (601–754)): 15 ± 1.1 µM; dH (Grp94-C (601–754)): -33 ± 1.7 kcal/mol; stoichiometry N (Grp94-C (601–754)): 2.9 ratio of Grp94 dimer to the OS-9 hexamer; Kd (His-Grp94-MC (337–765) [2]): 22.4 ± 2 µM; dH (His-Grp94-MC (337–765) [2]): -11.6 ± 1 kcal/mol; stoichiometry N (His-Grp94-MC (337–765) [2]): 2.7 ratio of Grp94 dimer to the OS-9 hexamer
Grp94 MC domains (protein) NDIKPIWQRPSKEVEDDEYKAFYKSFSKESDDPMAYIHFTAEGEVTFKSILFVPTSAPRGLFDEYGSKKSDYIKLYVRRVFITDDFHDMMPKYLNFVKGVVDSDDLPLNVSRETLQQHKLLKVIRKKLVRKTLDMIKKIADEKYNDTFWKEFGTNIKLGVIEDHSNRTRLAKLLRFQSSHHPSDITSLDQYVERMKEKQDKIYFMAGSSRKEAESSPFVERLLKKGYEVIYLTEPVDEYCIQALPEFDGKRFQNVAKEGVKFDESEKTKESREAIEKEFEPLLNWMKDKALKDKIEKAVVSQRLTESPCALVASQYGWSGNMERIMKAQAYQTGKDISTNYYASQKKTFEINPRHPLIKDMLRRVKEDEDDKTVSDLAVVLFETATLRSGYLLPDTKAYGDRIERMLRLSLNIDPDAKVEEEPEEEPEE	22			-7.2 ± 2.3	0.15 ratio of Grp94 dimer to the OS-9 hexamer	
Grp94 C domain (protein) EGVKFDESEKTKESREAIEKEFEPLLNWMKDKALKDKIEKAVVSQRLTESPCALVASQYGWSGNMERIMKAQAYQTGKDISTNYYASQKKTFEINPRHPLIKDMLRRVKEDEDDKTVSDLAVVLFETATLRSGYLLPDTKAYGDRIERMLRLSLNIDPDAKVEEEPEEEPEE		24				
